The target of the test is T1, human LILRB1 recombinant protein (human, UniProt Q8NHL6 24-461).
T1 construct: The ELISA method says only 'LILRB1 recombinant proteins' coated on plates; also called leukocyte immunoglobulin-like receptor subfamily B member 1
Briefly: ELISA, B cell supernatant. Background: ELISA stands for enzyme-linked immunosorbent assay.

T1 sequence (Q8NHL6 24-461 limits assumed): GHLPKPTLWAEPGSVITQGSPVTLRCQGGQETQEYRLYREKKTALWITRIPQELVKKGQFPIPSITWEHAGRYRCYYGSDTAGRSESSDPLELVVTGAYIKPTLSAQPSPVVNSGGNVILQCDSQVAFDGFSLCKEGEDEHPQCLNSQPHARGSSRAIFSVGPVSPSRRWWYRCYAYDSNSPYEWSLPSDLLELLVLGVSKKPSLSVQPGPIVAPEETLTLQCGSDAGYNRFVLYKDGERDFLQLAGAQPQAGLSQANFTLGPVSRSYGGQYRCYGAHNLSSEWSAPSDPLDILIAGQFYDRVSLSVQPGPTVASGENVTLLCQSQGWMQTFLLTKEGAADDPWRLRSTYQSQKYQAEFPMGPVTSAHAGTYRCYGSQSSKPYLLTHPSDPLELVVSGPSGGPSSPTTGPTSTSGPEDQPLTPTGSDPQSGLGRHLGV

B1: mAb of B cell clone 93 (supernatant) (antibody, V domains shown)
VH: EQSVEESGGDLVKPGTSLTLTCTASGFSFSGNTICWVRQAPGKRPEWIACIYPSSTSITTYATWAKGRFTVSKTSSTTVTLQMTSLTAADTATYFCARRYAAFLTYGSGAFDPWGPGTLVTISS
VL: ELDLTQTPASVSAAVGGTVTINCQASESIGSALAWYQQKPGQPPKLLIYSASALASGVPSRFKGSGSGTEYTLTISDLECADAATYYCQSYYGSGTTALDTFGGGTEVEIK
notes: rabbit; also called B1-#93
Regarding B1, the OD450 is 1.72 OD450.

B2: mAb of B cell clone 115 (supernatant) (antibody, V domains shown)
VH: EQSVKESGGGLVQPEGSLTLTCTASGFSFSSSYWICWVRQAPGKGLEWIGCIATGTGSTYYANWVNGRFTMSKPSSTTVTLQMTTLTAADTATYFCARGGGYWSFSLWGPGTLVTISS
VL: ELVMTQTPSSVEAAVGGTVTNKCQASEDIYSNLAWYQQKPGQPPKLLIYGATTLASGVPSRFKGSGSGTEFTLTISDLECADAATYYCQAESNDVWAFGGGTEVVVK
notes: rabbit
Regarding B2, the OD450 is 1.53 OD450.

B3: mAb of B cell clone 110 (supernatant) (antibody, V domains shown)
VH: QSLEESGGDLVKPEGSLTLTCTASGFSFSSSYWICWVRQAPGKGLEWIGCIYAGNSANTYYASWAKGRFTISKTSSTTVTLQLTSLTAADTATYFCASRNGGAPDGLNLWGPGTLVTISS
VL: ELDLTQTPASVEAAVGGTVTIKCQASLNINSWLAWYQQKPGQPPKLLISYTSSLASGVPSRFKGSGSGTEYTLTINDLECADAATYYCQTTYFGTNGGGFGGGTEVEIK
notes: rabbit; also called B1-#110
For the molecule B3, the OD450 came to 2.31 OD450.

B4: mAb of B cell clone 154 (supernatant) (antibody, V domains shown)
VH: QSVKESGGDLVKPGASLTLTCKASGFSFSSGHYMYWVRQAPGKGLEWIACIYAGSDTGSTWYASWAKGRFTISKTSSTTVTLQMTSLTAADTATYFCARSSNSYGNYGVSNLWGPGTLVTVSS
VL: ELDLTQTPASVEAAVRGTVTIKCQASQSISYYLAWYQQKPGQPPKVLIYKASTLASGVPPRFKGSGFGTEFTLTISDLECADAATYYCQSTYGRDNNDLFFAFGGGTEVEIK
notes: rabbit
Consider B4, for which the OD450 worked out at 1.98 OD450.

B5: mAb of B cell clone 125 (supernatant) (antibody, V domains shown)
VH: EQSLEESGGGLVQPEGSLTLTCTASGFSFTKNYYMCWVRQAPGKGLEWIGCIYAGSTNTFYASWAKGRFTISKASSTTVDLKMTSLTVADTATYFCARDFVSYLNLWGPGTLVTVSS
VL: ELDLTQTPSSSSAAVGGTVTINCQASQSVYNKNYLSWFQQKPGQPPKLLIYYASTLASGVPSRFKGSGSGTEFTLTISDVVCDDAATYYCAAYKGVSDDGISFGGGTEVEIK
notes: rabbit
Take B5: the OD450 was 2.43 OD450.

B6: mAb of B cell clone 98 (supernatant) (antibody, V domains shown)
VH: EQSLEESGGDLVKPEGSLTLTCTASGFSFSSSYWICWVRQAPGKGLEWIACVATGSGTTDYASWAKGRFTMSKTSSTTVTLQMTSLTVADTATYFCARIGAFYSFRLWGPGTLVTISS
VL: ELDLTQTPGSVEAAVGGTVTIKCQAGQSIYNYLSWYQQKPGQPPKLLIYSASTLESGVPPRFSGSGSGTEFTLTISDLECADAATYSCQNNYGIGSNYGPGFGGGTEVEIK
notes: rabbit; also called B1-#98
For B6, the OD450 was 2.01 OD450.

B7: mAb of B cell clone 117 (supernatant) (antibody, V domains shown)
VH: EQSLEESGGDLVKPEGSLTLTCTASGFSFSSSYYMCWIRQPPGRGLEWLACIYTGSDSTYYAPWAKGRFTISRTSSTTVTLQMTSLTAADTATYFCAGDWDYADAAGYYVARGFNLWGPGTLVTISS
VL: ELDLTQTPASVSAAVGGTVTIKCQASEDIYSNLAWYQQKPGQPPKLLIYKASTLASGVPPRFKGSGSGTEYTLTISGVQCDDAATYACQTTYWTTTDDNPFGGGTEVEIK
notes: rabbit
On to B7, for which the OD450 was found to be 2.23 OD450.

B8: mAb of B cell clone 128 (supernatant) (antibody, V domains shown)
VH: RAVGKESGGDLVTLGGSLKLSCKASGIDLSNFYYMCWVRQAPGKGLEWIGCVASDSSRTHYATWPKGRFTISKTSSTTVTLQMTSLTAADTATYFCARGSGASTNGVWWVMGDGMDLWGPGTLVTVSS
VL: ELDMTQTPSSVSAAVGGTVTIKCQASQSISSYLSWYQQKPGQPPKRLIYKASTLPSGVPPRFKGSGSGTEFTLTISDLECADAATYYCQNNYHSGSSNGGGFAFGGGTQVEIK
notes: rabbit
Consider B8, for which the OD450 worked out at 2.51 OD450.

The record behind these values is patent US12723078 (University of Texas, dated 2026).
